# Results: US20140298547
# Experiments:
# Experiment in all cases: cell_activity
# [1] = test system: ZFP SBS15590 (monomer of eZFN1 and eZFN8) (synthetic construct); conditions: in planta cut plus chimeric
# [2] = test system: ZFP SBS18473 (monomer of eZFN8) (synthetic construct); conditions: as eZFN8 pair with SBS15590; in planta cut plus chimeric, 489/697 plants
# [3] = test system: ZFP SBS8196 (monomer of eZFN1) (synthetic construct); conditions: as eZFN1 pair with SBS15590; in planta cut plus chimeric, 524/1125 plants
sequence,measurement,setting,value
ATTTTACAATCCTGTCCCTAGTGAGATGGGCGGGAGTCTTCAATCCTGTCCCTAGTGGATAAACTGCAAAAGGCGGATCA (double strand) [ELP locus eZFN1/eZFN8 binding region],activity,"[1]; as eZFN1 pair with SBS8196, 524/1125 plants",46.6%
same,activity,"[1]; as eZFN8 pair with SBS18473, 489/697 plants",70.2%
same,activity,[2],70.2%
same,activity,[3],46.6%
